Results as given in PMC7452893 (2020).

B1: MD62 (antibody, V domains shown)
VH: EVQLVQSGGGLIQPGGSLRLSCAASGVTVSSNYMTWVRQAPGKGLEWVSLIYSGGSTYYADSVKGRFTISRDNSKNTLYLQMNSLRAEDTAVYYCARDLQYYGMDVWGQGTMVTVSS
VL: AIRMTQSPSSVSASVGDRVTITCRASQDIGSWLGWYQQKPGKAPKLLIYAASSLAGGVPSRFSGSGSGTDFTLTISSLQPEDFATYYCQQANSFPLTFGGGTKLEIK
modifications: biotinylated when immobilised on the BLI sensor
B2: MD63 (antibody, V domains shown)
VH: QVTLKESGGGVVQPGRSLRLSCAASGFTFSSYAMHWVRQAPGKGLEHVSAISSDGGITYFADSVKGRFTISRDNSRNTLFLQMSSLRVEDTAVYYCVKDQDSNSWYDAFDIWGRGTMVTVSS
VL: not shown
modifications: biotinylated when immobilised on the BLI sensor
B3: MD29 (antibody, V domains shown)
VH: QMQLVQSGGGLVQPGGSLRLSCSASGFTFSTYVMNWVRQAPGKGPEHVSGISSDGGITYYADSVKGRFTISRDNSKNTLYLQMSSLRVEDTAVYYCVKDQDSSSWYDAFDIWGQGTMVTVSS
VL: NIRLTQSPSSLSASVGDRVTITCRATQSISSYLNWYQQKPGKAPNLLIYAASSLQSGVPSRFSGSGSGTDFTLTISSLQPEDFATYYCHQTYTSPYTFGQGTKLEIK
modifications: biotinylated when immobilised on the BLI sensor
B4: MD17 (antibody, V domains shown)
VH: EVQLLESGGGLVQPGGSLRLSCSASGFTFSTYVMNWVRQAPGKGLEHVSGISSDGGITYYADSVKGRFTISRDNSKNTLYLQMSSLRVEDTAVYYCVKDQDSSSWYDAFDIWGQGTMVTVSS
VL: DIVMTQSPSSLSASVGDRVTITCRASQSISNYLNWYQQKLGKAPKLLTYAASRLQSGVPSRFSASGSGTEFTLTISSLQPEDFATYYCQQSYTTPLTFGGGTKLEIK
modifications: biotinylated when immobilised on the BLI sensor
B5: MD67 (antibody, V domains shown)
VH: EVQLVESGGGLVQPGGSLRLSCAASGFTVSSNYMTWVRQAPGKGLEWVSVIYSGGSTFYADSVKGRFTISRHNSKNTLYLQMNSLRAEDTAVYYCARDLSVRGGMDVWGQGTTVTVSS
VL: not shown
modifications: biotinylated when immobilised on the BLI sensor
B6: MD45 (antibody, V domains shown)
VH: EVQLVQSGGGLVQPGGSLRLSCAASGFTVSSNYMTWVRQAPGKGLEWVSVIYSGGSTFYADSVKGRFTISRHNSKNTLYLQMNSLRAEDTAVYYCARDLSVRGGMDVWGQGTMVTVSS
VL: EIVLTQSPGTLSLSPGERATLSCRASQSVNSSYLAWYQQKPGQAPRLLIYGASNRATGIPDRFSGSGSGTDFTLTISRLEPEDFAVYYCQQYGVSPEIIFGQGTRLEIK
modifications: biotinylated when immobilised on the BLI sensor
B7: MD47 (antibody, V domains shown)
V domain 1: QMQLVQSGGGLVQPGGSLRLSCAASGFTFSSYAMSWVRQAPGKGLEWVSAISSGGSTYYADSVKGRFTISRDNSKNTLYLQMNSLRAEDTAVYYCAKDLVTAPSYEAFDIWGQGTMITVSS
V domain 2: NFMLTQPPSVSVAPGKTARITCGGNNIGSKSVHWYQQKPGQAPVLVIYYDSDRPSGIPERFSGSNSGNTATLTISRVEAGDEADYYCQVWDSSSHHHVVFGGGTKGTVL
modifications: biotinylated when immobilised on the BLI sensor

Assays:
[1] = target: T1, SARS-CoV-2 spike receptor-binding domain (RBD), monomeric (SARS-CoV-2, UniProt P0DTC2); assay: BLI
[2] = target: T1, SARS-CoV-2 spike receptor-binding …; assay: BLI; remark: listed apart in the source

| Binder | koff [1] | Kd [2] |
| --- | --- | --- |
| B1 | 0.00063 s⁻¹ | 4.8 nM |
| B2 | 0.00053 s⁻¹ | 3.4 nM |
| B3 | 0.00014 s⁻¹ | – |
| B4 | 0.00026 s⁻¹ | 2.6 nM |
| B5 | 0.00075 s⁻¹ | – |
| B6 | 0.00055 s⁻¹ | 5.6 nM |
| B7 | 9e-05 s⁻¹ | 0.5 nM |
